{"source": "paper PMC7473855", "about": "“An alpaca nanobody neutralizes SARS-CoV-2 by blocking receptor interaction” (Nature Communications, 2020)", "key": {"[1]": {"target": "T1, SARS-CoV-2 spike receptor-binding domain (RBD) (SARS-CoV-2, UniProt P0DTC2 319-541)", "T1 construct": "also called monomeric RBD", "test": "ITC", "settings": "both partners purified"}, "[2]": {"target": "T1, SARS-CoV-2 spike receptor-binding …", "test": "BLI", "settings": "both partners purified"}}, "note": "Values joined by “and” are separate entries in the source; they are usually repeats but may differ in a detail not shown here. Equal values may be shown once.", "data": [{"binder": "Ty1 nanobody (VHH) VHH: QVQLVETGGGLVQPGGSLRLSCAASGFTFSSVYMNWVRQAPGKGPEWVSRISPNSGNIGYTDSVKGRFTISRDNAKNTLYLQMNNLKPEDTALYYCAIGLNLSSSSVRGQGTQVTVSS", "values": [{"measurement": "Kd", "setting": "[1]", "result": 9, "unit": "nM"}, {"measurement": "dH", "setting": "[1]", "result": "~-10", "unit": "kcal/mol"}]}, {"binder": "Ty1 nanobody, biotinylated on the C-terminus (VHH, biotin on the C-terminus (GGGK-biotin joined by Sortase A), not shown: Sortase recognition site (LPETG), C-terminal, kept) VHH: QVQLVETGGGLVQPGGSLRLSCAASGFTFSSVYMNWVRQAPGKGPEWVSRISPNSGNIGYTDSVKGRFTISRDNAKNTLYLQMNNLKPEDTALYYCAIGLNLSSSSVRGQGTQVTVSS", "values": [{"measurement": "Kd", "setting": "[2]", "result": "8 nM and 13 nM"}]}]}
